Assay results published in patent publication US20250171532A1 (NB HEALTH LABORATORY, published 2025).
Read-outs that look alike come from different tables or passages of the source.

T1: mouse LPA3 with FLAG tag (mouse LPA3 gene transfected cell) (mouse, UniProt Q9EQ31 1-354)
T1 construct: not shown: FLAG tag added at the 5' terminal of the gene
T1 sequence: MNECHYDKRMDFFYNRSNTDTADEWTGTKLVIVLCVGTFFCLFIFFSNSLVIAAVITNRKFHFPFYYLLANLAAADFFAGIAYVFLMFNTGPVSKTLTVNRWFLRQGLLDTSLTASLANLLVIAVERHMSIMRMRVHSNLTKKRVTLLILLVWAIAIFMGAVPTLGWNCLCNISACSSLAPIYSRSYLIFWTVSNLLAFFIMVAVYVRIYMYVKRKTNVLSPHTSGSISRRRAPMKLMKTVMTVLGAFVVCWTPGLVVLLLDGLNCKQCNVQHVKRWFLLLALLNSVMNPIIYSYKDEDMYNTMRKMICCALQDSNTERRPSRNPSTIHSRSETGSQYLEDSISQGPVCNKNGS

T2: human LPA3 with FLAG tag (human LPA3 gene transfected cell) (human, UniProt Q9UBY5 1-353)
T2 construct: also called EDG7; not shown: FLAG tag added at the 5' terminal of the gene
T2 sequence: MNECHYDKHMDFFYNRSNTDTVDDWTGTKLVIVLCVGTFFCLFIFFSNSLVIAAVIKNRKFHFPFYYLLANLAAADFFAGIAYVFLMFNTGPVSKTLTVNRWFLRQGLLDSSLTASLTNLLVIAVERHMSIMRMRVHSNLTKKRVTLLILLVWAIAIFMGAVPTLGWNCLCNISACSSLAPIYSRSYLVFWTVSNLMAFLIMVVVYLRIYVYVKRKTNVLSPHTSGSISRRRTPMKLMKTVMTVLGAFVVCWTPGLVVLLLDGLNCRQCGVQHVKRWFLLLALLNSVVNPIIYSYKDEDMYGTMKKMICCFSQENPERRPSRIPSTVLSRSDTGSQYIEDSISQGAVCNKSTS


Key:
[1] = biological target: T3, human LPA2 with FLAG tag (human LPA2 gene transfected cell) (human, UniProt Q9HBW0 1-348); experiment: flow cytometry, transfected HEK293FT cells, histogram shift
T3 construct: also called EDG4; not shown: FLAG tag added at the 5' terminal of the gene
T3 sequence (Q9HBW0 other isoform, or with tags, fused parts or gaps): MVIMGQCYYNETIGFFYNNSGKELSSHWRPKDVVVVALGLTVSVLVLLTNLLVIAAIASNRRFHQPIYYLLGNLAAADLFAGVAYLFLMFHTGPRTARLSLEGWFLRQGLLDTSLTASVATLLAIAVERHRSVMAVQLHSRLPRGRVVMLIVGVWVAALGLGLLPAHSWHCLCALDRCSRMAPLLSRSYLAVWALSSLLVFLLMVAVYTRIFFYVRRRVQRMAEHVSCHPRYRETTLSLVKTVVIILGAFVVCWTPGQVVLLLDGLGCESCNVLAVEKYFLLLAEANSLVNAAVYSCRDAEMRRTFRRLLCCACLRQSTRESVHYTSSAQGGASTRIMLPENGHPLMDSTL
Protocol: (§1) BTEK293FT cell was transfected with 10 μg of an expression vector carrying each synthetic gene using Lipofectamine 2000, to prepare a human LPA1 gene transfected cell, a mouse LPA1 gene transfected cell, a human LPA2 gene transfected cell, a mouse LPA2 gene transfected cell, a human LPA3 gene transfected cell, and a mouse LPA3 gene transfected cell.
(§2) The next day, the cells were washed with PBS, then detached from the cell culture dishes by an enzyme-free cell dissociation buffer (Thermo Fisher Scientific, Inc.), then washed with PBS, and then collected by centrifugation. Goat serum (Thermo Fisher Scientific, Inc.) was diluted by 2 times in FACS buffer (PBS containing 1% o of FBS), into which the cells were suspended at 1×10⁷ cells/mL. This suspension was allowed to stand at 4° C. for 30 minutes to block the cells. The cells were collected by centrifugation and suspended in FACS buffer at 4×10⁶ cells/mL, and this suspension was dispensed into a V-bottom 96-well plate (Thermo Fisher Scientific, Inc.) at 25 μL (1×10⁵ cells)/well.
(§3) The cells were collected by centrifugation and washed with 120 μL of FACS buffer. This washing operation was repeated twice. To the cell sediment, 25 μL each of Goat Anti-Mouse IgG H&L (DyLight 650) (Abcam) that was a secondary antibody diluted by 500 times in FACS buffer was dispensed, then suspended, and then allowed to stand at 4° C. for 1 hour. The cells were washed twice, then suspended in 50 μL of FACS buffer, and the whole content thereof was transferred to a V-bottom 96-well plate (Greiner), to measure the binding of antibodies to the cells using a flow cytometer (Agilent Novocyte).

[2] = biological target: T4, mouse LPA2 with FLAG tag (mouse LPA2 gene transfected cell) (mouse, UniProt Q9JL06 1-348); experiment: as above
T4 construct: not shown: FLAG tag added at the 5' terminal of the gene
T4 sequence (Q9JL06 whole entry): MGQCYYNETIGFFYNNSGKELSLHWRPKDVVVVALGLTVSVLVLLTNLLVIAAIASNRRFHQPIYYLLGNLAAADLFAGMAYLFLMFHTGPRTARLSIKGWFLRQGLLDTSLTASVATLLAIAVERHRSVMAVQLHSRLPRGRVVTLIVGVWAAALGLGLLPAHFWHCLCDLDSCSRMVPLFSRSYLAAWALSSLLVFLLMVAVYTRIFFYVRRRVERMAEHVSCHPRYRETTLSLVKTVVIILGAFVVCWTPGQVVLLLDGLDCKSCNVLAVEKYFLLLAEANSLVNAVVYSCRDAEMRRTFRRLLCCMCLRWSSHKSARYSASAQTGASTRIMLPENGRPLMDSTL
Protocol: as §1, §2, §3

[3] = biological target: T1, mouse LPA3 with FLAG tag (mouse LPA3 …); experiment: as above
Protocol: as §1, §2, §3

[4] = biological target: T2, human LPA3 with FLAG tag (human LPA3 …); experiment: as above
Protocol: as §1, §2, §3

human LPA1 [5] = biological target: T5, human LPA1 (human, UniProt Q92633 1-364); experiment: flow cytometry, human LPA1-stably expressing CHO cells, median fluorescence intensity
T5 construct: Untagged, on human LPA1-stably expressing CHO cells (CHO-K1); also the endogenous receptor on the human lung fibroblast line printed as IMIR-90; also called human lysophosphatidic acid receptor 1; hLPA1
T5 sequence (Q92633 whole entry): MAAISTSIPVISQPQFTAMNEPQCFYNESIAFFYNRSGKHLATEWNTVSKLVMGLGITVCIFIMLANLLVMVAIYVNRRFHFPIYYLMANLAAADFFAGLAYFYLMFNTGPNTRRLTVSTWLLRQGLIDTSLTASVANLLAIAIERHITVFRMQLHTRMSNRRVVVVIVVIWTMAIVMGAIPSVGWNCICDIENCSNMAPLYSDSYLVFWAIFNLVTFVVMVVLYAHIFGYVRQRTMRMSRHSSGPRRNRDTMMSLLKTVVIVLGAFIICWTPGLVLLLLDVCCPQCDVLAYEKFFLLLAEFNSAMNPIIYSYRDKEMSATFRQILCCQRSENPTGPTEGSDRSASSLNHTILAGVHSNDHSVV
Text: (§4) The human LPA1-stably expressing CHO cell and the mouse LPA1-stably expressing CHO cell were washed with PBS, then detached from the cell culture dishes by an enzyme-free cell dissociation buffer (Thermo Fisher Scientific, Inc.), then washed with PBS, and then collected by centrifugation. The human LPA1-stably expressing CHO cell and the mouse LPA1-stably expressing CHO cell were suspended at 1×10⁷ cells/mL in Fc Block (Sci-Tech Biosciences, Inc.) diluted by 500 times in FACS buffer, and then allowed to stand at 4° C. for 30 minutes to block the cells. The cells were collected by centrifugation and suspended in FACS buffer at 4×10⁶ cells/mL, and this suspension was dispensed into a V-bottom 96-well plate (Thermo Fisher Scientific, Inc.) at 25 μL (1×10⁵ cells)/well. As primary antibodies, the eleven types of LPA1 antibodies produced and purified by the method described above and a mouse isotype control antibody (Fujifilm Wako Pure Chemicals Corporation) were diluted stepwise, which was added to each well at 25 μL/well, and allowed to stand at 4° C. for 1 hour. The cells were collected by centrifugation and washed with 120 μL of FACS buffer. This washing operation was repeated twice. To the cell sediment, 25 μL each of Goat Anti-Mouse IgG H&L (DyLight 650) (Abcam) that was a secondary antibody diluted by 500 times in FACS buffer was dispensed, then suspended, and then allowed to stand at 4° C. for 1 hour. The cells were washed twice, then suspended in 50 μL of FACS buffer, and the binding of antibodies to the cells was measured using a flow cytometer (Agilent Novocyte).
(§5) A graph was created, in which a concentration of the antibody was plotted on the […] axis, and a median fluorescence intensity of the flow cytometer histogram was plotted on the horizontal axis. All of the eleven antibodies were confirmed to dose-dependently bind to the human LPA1-stably expressing CHO cell and the mouse LPA1-stably expressing CHO cell. The results of the binding of each antibody to the human LPA1-stably expressing CHO cell are presented in FIG. 2A to FIG. 2K, and the results of the binding of each antibody to the mouse LPA1-stably expressing CHO cell are presented in FIG. 3A to FIG. 3K.

human LPA1 [6] = biological target: T5, human LPA1; experiment: cell-based or functional assay
mouse LPA1 [7] = biological target: T6, mouse LPA1 (mouse, UniProt P61793 1-364); experiment: cell-based or functional assay
T6 sequence (P61793 whole entry): as the sequence (Q92633 whole entry) above, with I4A, I8S, P22Q, H40Y, I61V, E193D, N194H, I269V, S331N, T335N counted along it

human LPA1 [8] = biological target: T5, human LPA1; experiment: cell-based or functional assay; remark: listed apart in the source
mouse LPA1 [9] = biological target: T6, mouse LPA1; experiment: cell-based or functional assay; remark: listed apart in the source
mouse LPA1 [10] = biological target: T6, mouse LPA1; experiment: flow cytometry, mouse LPA1-stably expressing CHO cells, median fluorescence intensity
Text: as §4, §5

human LPA1 [11] = biological target: T5, human LPA1; experiment: flow cytometry, human LPA1-stably expressing CHO cells, median fluorescence intensity; remark: listed apart in the source
Text: as §4
Subsequently, the binding activity of the human LPA1-stably expressing CHO cell to human LPA1 was measured according to the method in Example 6. A graph was created, in which a concentration of the antibody was plotted on the […] axis, and a median fluorescence intensity of the flow cytometer histogram was plotted on the horizontal axis. […] The intracellular cAMP signaling inhibitory activity was also measured according to the method in Example 7.

human LPA1 [12] = biological target: T5, human LPA1; experiment: cell-based or functional assay; remark: listed apart in the source

Binder | EC50 (human LPA1 [5]) [nM] | Intracellular cAMP signaling inhibition (Inhibition rate %/100 nM) (human LPA1 [6]) [%] | Intracellular cAMP signaling inhibition (Inhibition rate %/100 nM) (mouse LPA1 [7]) [%] | Intracellular cAMP signaling inhibition IC50 (human LPA1 [8]) [nM] | Intracellular cAMP signaling inhibition IC50 (mouse LPA1 [9]) [nM] | EC50 (mouse LPA1 [10]) [nM] | EC50 (human LPA1 [11]) [nM] | Intracellular cAMP signaling inhibition IC50 (human LPA1 [12]) [nM] | binding result [1] | binding result [2] | binding result [3] | binding result [4]
210309-2-D (antibody, mouse IgG1, V domains shown, Mouse monoclonal from human LPA1 immunization) VH: QVQLQQSGAELARPGASVKLSCKASGYTFTSYGISWVKQRTGQGLEWIGEIYPRSGNTYYNEKVKGKATLTADKSSSTAYMELRSLTSEDSAVYFCARESIFLRLGWYFDVWGTGTTVTVSS VL: DIQMTQSPASLSASVGETVTITCRASDNIYRFLAWYQQKQGKSPQLLVYNAKTLAEGVPSRFSGSGTGTQFSLKINSLQPEDFGIYYCQHHYGPPLTFGAGTKLELK | 1.8 | 51 | 53 | 18 | 163 | 2.1 | – | – | no binding (tested: 25 g/mL (so in the source)) | no binding (tested: 25 g/mL (so in the source)) | no binding (tested: 25 g/mL (so in the source)) | no binding (tested: 25 g/mL (so in the source))
211222-1-G (antibody, mouse IgG1, V domains shown, Mouse monoclonal from human LPA1 immunization) VH: QVQVQQSGAELARPGASVRLSCKASGYTFTSFGVNWVKQRTGQGLEWIGQIYPRTGTTYHNERFKGKATLTADKSSSTAYMELRSLTSEDSAVYFCAREGDRYSLAYWGQGTLVTVSA VL: DIQMTQSPASLSASVGETVTITCRASENIYRFLAWYQQKQGKSPQLLVYNAKTLVEGVPSRFSGSGSGTQFSLKINNLQPEDFGSYYCQHHYGIPLTFGAGTKLELK | 4.2 | 22 | 49 | 96.8 | 199 | 2.3 | – | – | no binding (tested: 25 g/mL (so in the source)) | no binding (tested: 25 g/mL (so in the source)) | no binding (tested: 25 g/mL (so in the source)) | no binding (tested: 25 g/mL (so in the source))
h309-4-A-BP1 (antibody, human IgG1, kappa, L234A L235A, V domains shown, also called humanized anti-LPA1 antibody) VH: QVQLVQSGAEVKKPGASVKVSCKASGYTFTSYGISWVRQAPGQGLEWMGEIYPRSGNTYYNEKFKGRVTLTADKSTSTAYMELRSLTSEDTAVYFCARESISRRLGWNFDVWGQGTTVTVSS VL: DIQMTQSPSSLSASVGDTVTITCRASENIYSFLAWYQQKPGKAPKLLIYNAKTLTEGVPSRFSGSGSGTHFSLTINSLQPEDFGIYYCQHHYGPPLTFGQGTKLEIKR | – | – | – | – | – | – | 4.3 | 4.4 | – | – | – | –
h309-4-A-SS1 (antibody, human IgG1, kappa, L234A L235A, V domains shown, also called humanized anti-LPA1 antibody) VH: QVQLQESGPGLVKPSETLSLTCTASGYTFTSYGISWVRQTPGKGLEWIGEIYPRSGNTYYNEKFKGRATLSADKSKNQASLKLKSVTAADTAIYFCARESISRRLGWNFDVWGRGTLVTVSG VL: DIQMTQTPSSLSASVGDRVTITCRASENIYSFLAWYQQKPGEAPKRVVYNAKTLTEGVPSRFSGSGSGTDFTLTISSLQPEDFATYYCQHHYGPPLTFGQGTKLEIKR | – | – | – | – | – | – | 4.9 | 5.2 | – | – | – | –

More lines, main results first:

EC50 (human LPA1 [5]) [nM] | Intracellular cAMP signaling inhibition (Inhibition rate %/100 nM) (human LPA1 [6]) [%] | Intracellular cAMP signaling inhibition (Inhibition rate %/100 nM) (mouse LPA1 [7]) [%] | Intracellular cAMP signaling inhibition IC50 (human LPA1 [8]) [nM] | Intracellular cAMP signaling inhibition IC50 (mouse LPA1 [9]) [nM] | EC50 (mouse LPA1 [10]) [nM] | EC50 (human LPA1 [11]) [nM] | Intracellular cAMP signaling inhibition IC50 (human LPA1 [12]) [nM] | Binder | binding result [1] | binding result [2] | binding result [3] | binding result [4]
2 | 24 | 46 | 48.3 | 124 | 1.3 | – | – | 210420-4-E (antibody, mouse IgG1, V domains shown, Mouse monoclonal from mouse LPA1 immunization) VH: QLHLQQSGAELARPGASVRLSCKASGYTFASFGISWVKQRTGQGLEYIGEIYPRSGTTYFNEKFRGKATLSADKSSSTAYMELRSLTSEDSAVYFCAREGVRRYAMDYWGQGTSVTVSS VL: DIQVTQSPASLSASVGETVTITCRASGNIYSFLAWYQQKQGKSPQLLVYNAKTLAEGVPSRFSGSGSGTQFSLKISSLQPEDFGSYYCQHHYGIPLTFGAGTKLDLK | no binding (tested: 25 g/mL (so in the source)) | no binding (tested: 25 g/mL (so in the source)) | no binding (tested: 25 g/mL (so in the source)) | no binding (tested: 25 g/mL (so in the source))
1.9 | 44 | 50 | 33.1 | 114 | 1 | – | – | 210420-3-E (antibody, mouse IgG1, V domains shown, Mouse monoclonal from mouse LPA1 immunization) VH: QLQLQQSGAELARPGASVKLSCKASGYTFASFGISWVKQRAGQGLEYIGEIYPRSGTTYFNEKFRGKATLTADKSSSTAYMELRRLTSEDSAVYFCAREGVRRYAMDYWGQGTSVTVSS VL: DIQVTQSPASLSASVGETVTITCRASGNIYSFLAWYQQKQGKSPQLLVYNAKTLAEGVPSRFSGSGSGTQFSLKINSLQPEDFGSYYCQHHYGIPLTFGAGTKLDLK | no binding (tested: 25 g/mL (so in the source)) | no binding (tested: 25 g/mL (so in the source)) | no binding (tested: 25 g/mL (so in the source)) | no binding (tested: 25 g/mL (so in the source))
